# Test results taken from US8257698B2, “Protein engineering of monoacylglycerol lipase (MGLL)” (Janssen Pharmaceutica N.V., priority 2008, dated 2012).
# Where a chain is given by its changes, count along the chain named. In names and notes the source's numbering stands.
# B1: mut-MGLL 9-303, L169S, L176S: engineered form of human MGLL, cap mutations plus truncation (protein, UniProt Q99685 9-303, looked up, variant L169S L176S)
# chain: RTPQSIPYQDLPHLVNADGQYLFCRYWKPTGTPKALIFVSHGAGEHSGRYEELARMLMGLDLLVFAHDHVGHGQSEGERMVVSDFHVFVRDVLQHVDSMQKDYPGLPVFLLGHSMGGAIAILTAAERPGHFAGMVLISPLVLANPESATTFKVLAAKVLNSVLPNLSSGPIDSSVLSRNKTEVDIYNSDPLICRAGLKVCFGIQLLNAVSRVERALPKLTVPFLLLQGSADRLCDSKGAYLLMELAKSQDKTLKIYEGAYHVLHKELPEVTNSVFHEINMWVSQRTATAGTASPP
# B2: mut-MGLL 9-297, L169S, L176S: engineered form of human MGLL, cap mutations plus truncation (protein, UniProt Q99685 9-297, looked up, variant L169S L176S)
# chain: RTPQSIPYQDLPHLVNADGQYLFCRYWKPTGTPKALIFVSHGAGEHSGRYEELARMLMGLDLLVFAHDHVGHGQSEGERMVVSDFHVFVRDVLQHVDSMQKDYPGLPVFLLGHSMGGAIAILTAAERPGHFAGMVLISPLVLANPESATTFKVLAAKVLNSVLPNLSSGPIDSSVLSRNKTEVDIYNSDPLICRAGLKVCFGIQLLNAVSRVERALPKLTVPFLLLQGSADRLCDSKGAYLLMELAKSQDKTLKIYEGAYHVLHKELPEVTNSVFHEINMWVSQRTATA
# B3: mut-MGLL 1-303, L171Q: engineered form of human MGLL, cap mutation (protein)
# chain: MVDHHHHHHENLYFQGMPEESSPRRTPQSIPYQDLPHLVNADGQYLFCRYWKPTGTPKALIFVSHGAGEHSGRYEELARMLMGLDLLVFAHDHVGHGQSEGERMVVSDFHVFVRDVLQHVDSMQKDYPGLPVFLLGHSMGGAIAILTAAERPGHFAGMVLISPLVLANPESATTFKVLAAKVLNLVQPNLSLGPIDSSVLSRNKTEVDIYNSDPLICRAGLKVCFGIQLLNAVSRVERALPKLTVPFLLLQGSADRLCDSKGAYLLMELAKSQDKTLKIYEGAYHVLHKELPEVTNSVFHEINMWVSQRTATAGTASPP
# B4: mut-MGLL. 1-303, L169S, L176S, K160A: engineered form of human MGLL, cap plus surface mutations (protein)
# chain: B3 chain with K176A, L185S, Q187L, L192S
# B5: mut-MGLL 1-303, L169S, L176S, K36A: engineered human MGLL 1-303 L169S, L176S, K36A; SEQ ID NO: 6, SEQ ID NO: 7 after TEV cleavage (protein)
# chain: B3 chain with K52A, L185S, Q187L, L192S
# modifications: His tag and TEV site; SEQ ID 7 after TEV cleavage; Human
# B6: mut-MGLL. 1-303, L167Q, L174Q: engineered form of human MGLL, cap mutations (protein)
# chain: B3 chain with L183Q, Q187L, L190Q
# B7: mut-MGLL 1-303, L167Q, L171Q: engineered form of human MGLL, cap mutations (protein)
# chain: B3 chain with L183Q
# B8: mut-MGLL 1-303, L171Q, L174Q: engineered form of human MGLL, cap mutations (protein)
# chain: B3 chain with L190Q
# Test system: MGLL
# Assay: Kinetic analysis: hydrolysis of 4-methyl coumarin butyrate (4MC-B) by MGLL constructs
# Type: biochemical, human
# Conditions: substrate 4MC-B; 4-5 nM MGLL, 20 mM Pipes pH 7, 150 mM NaCl, 37° C.; average of 2 or 4 separate assays
# Description: A small fluorescent substrate, 4-methyl coumarin butyrate (4MC-B) was used to compare the activity of the engineered mutants to the activity of wt-MGLL (hMGLL 1-303) (SEQ ID NO: 3). The catalytic efficiency (kcat/KM) for the hydrolysis of the 4MC-B was similar for wt-MGLL (hMGLL 1-303) (SEQ ID NO: 3) and all MGLL mutants tested (Table 2). A larger more aliphatic fluorescent substrate, Coumarin Arachidonate (C-A), structurally more closely related to the MGLL natural substrate, 2-AG, was used to compare the activity of wt-MGLL (hMGLL 1-303) (SEQ ID NO: 3) to TEV cleaved mut-MGLL (hMGLL 1-303 L169S, L176S) (SEQ ID NO: 5).
# The Michaelis-Menten parameters for the hydrolysis of 4-methylcoumarin butyrate (4MC-B) and coumarin arachidonate (C-A) substrate were determined using 4-5 nM of MGLL in 20 mM Pipes pH 7 and 150 mM NaCl at 37° C. The change in fluorescence due to substrate hydrolysis was monitored using excitation/emission wavelengths of 335/440 in a Safire II instrument from Tecan. The hyperbolic rates versus substrate concentration curves for the hydrolysis of 4MC-B were fit to the Michaelis-Menten equation using Excel.
Molecule,Kcat [s⁻¹],Km [µM]
B1,0.45,88
B2,0.433,126
B3,0.85,105
B4,0.5,90
B5,0.85,124
B6,1.17,84
B7,0.983,84
B8,0.783,89
